Results taken from paper doi:10.1101/2025.01.14.632876v1.

Substrate: NC(=O)c1ccc[n+]([C@@H]2O[C@H](COP(=O)(O)OP(=O)(O)OC[C@H]3O[C@@H](n4cnc5c(N)ncnc54)[C@H](O)[C@@H]3O)[C@@H](O)[C@H]2O)c1
Assay: purified protein
Settings: G6PDH activity, co-substrate G6P, 2 M KCl, 100 mM Tris-HCl pH 8.5

B1: HvG6PDH (Haloferax volcanii DS2) (protein)
chain: MDQPVLLTGAGGRVGQAILGHIGDAYDWRLLDREPLSDEKIPDSVDSTEVYVADVTDETAVRNAMDGVHAVIHLAGDPRPEAPWDSVLRNNIDGTQQMFDAAVDVGVEKFAFASSNHAVGAYETTDRTPDMYRPHHEFRLDGTELPRPSNLYGVSKAAGETLGRYYHDHHDISVVNVRIGNLTQHHPPKEYERGQAMWLSYRDCGHLFECCIEADYDYEIVYGISDNDRKYYSIDRARAVLGYDPQDNSAEFTFEGEPLDEA
Which results are given for B1?
Km: 198 ± 6 µM; kcat: 42.5 ± 0.1 s⁻¹
